Source: patent publication US7192728B2, “Screening assays for agents that alter inhibitor of apoptosis (IAP) protein regulation of caspase activity” (The Burnham Institute, priority 1997, dated 2007)

Assays:
[1] = biological target: T1, caspase-3 (Homo sapiens, UniProt P42574); experiment: Inhibition of purified recombinant caspase-3, DEVD substrate hydrolysis and progress curves; assay type: biochemical
T1 construct: to produce the 17–20 kDa mature, fully processed large subunit of the active caspase-3 enzyme; a smaller, fully processed, subunit of about 11 kDa; His6; made in house; host or cells: E. coli BL21(DE3)pLysS
T1 sequence (P42574 29-175 limits assumed): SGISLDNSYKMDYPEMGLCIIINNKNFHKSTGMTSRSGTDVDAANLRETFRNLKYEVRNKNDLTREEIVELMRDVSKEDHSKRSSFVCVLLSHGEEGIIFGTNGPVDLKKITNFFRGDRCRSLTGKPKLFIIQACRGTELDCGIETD
T1 sequence (P42574 176-277 limits assumed): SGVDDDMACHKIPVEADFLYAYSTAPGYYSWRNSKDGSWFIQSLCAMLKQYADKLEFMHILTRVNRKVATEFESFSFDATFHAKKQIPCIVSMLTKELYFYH
Description: (§1) Purified recombinant caspase-1, caspase-3, caspase-6, caspase-7 or caspase-8 were incubated with DEVD-pNA, either alone or with a 10-fold to 50-fold molar excess of GST-XIAP ([…]) and substrate hydrolysis was measured. Purified active caspase concentrations ranged from 0.1 nM to 10 nM. XIAP concentration ranged from 0.1 nM to 500 nM. Assays were performed in caspase buffer (50 mM Tris, pH 7.4, 100 mM NaCl, 10% sucrose, 5–10 mM DTT, 1 mM EDTA and 0.1% CHAPS).
(§2) Equilibria were determined from progress curves when substrate hydrolysis reached a steady-state; slopes were calculated by curve fit analysis using the cricket graph program. Experiments were performed using purified recombinant caspase-3, caspase-6, or caspase-7. DEVD-AFC hydrolysis was measured using 0.1 nM caspase and a range of concentrations (0.2 to 12 μM) of recombinant XIAP (rXIAP). […] Average ratio velocities (vi/vo, where “vi” indicates presence of GST-XIAP and “vo” indicates absence of GST-XIAP) were determined.
Caspase activity was determined essentially as described in Example II, using the benzylyoxycarbonyl-DEVD-AFC (SEQ ID NO: 2) substrate and was assayed at 37° C. using the Perkin-Elmer LS50B fluorometric plate reader in the kinetic mode with excitation and emission wavelengths of 400 nm and 505 nm, respectively. […] Reactions were performed in caspase buffer (50 mM Hepes, 100 mM NaCl, 1 mM EDTA, 0.1% CHAPS, 10% sucrose, 5 mM DTT). The inhibition constant, Ki, was calculated as described (Zhou et al., supra, 1997). Immunoblot analysis was performed as described in Example I.B.3.

[2] = biological target: T2, caspase-8 (Homo sapiens, UniProt Q14790); experiment: Inhibition of purified recombinant caspase-8, DEVD substrate hydrolysis; assay type: biochemical
T2 construct: a cDNA encoding the catalytic subunit of caspase-8 (Ser 217 to the C-terminus); His6; made in house; host or cells: E. coli BL21(DE3)pLysS
T2 sequence (Q14790 217-374 limits assumed): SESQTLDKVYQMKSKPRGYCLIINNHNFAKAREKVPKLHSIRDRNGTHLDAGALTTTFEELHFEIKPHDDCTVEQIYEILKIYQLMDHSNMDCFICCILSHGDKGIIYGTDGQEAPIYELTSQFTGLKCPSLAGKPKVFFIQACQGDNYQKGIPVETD
T2 sequence (Q14790 385-479 limits assumed): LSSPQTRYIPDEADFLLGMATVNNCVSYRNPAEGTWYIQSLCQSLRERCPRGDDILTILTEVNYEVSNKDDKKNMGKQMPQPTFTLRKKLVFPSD
Description: as §1, §2

[3] = biological target: T3, caspase-1 (Homo sapiens, UniProt P29466); experiment: Inhibition of purified recombinant caspase-1, substrate hydrolysis; assay type: biochemical; settings: 50-fold molar excess
T3 construct: Purified active caspase concentrations ranged from 0.1 nM to 10 nM; made in house
T3 sequence (P29466 120-297 limits assumed): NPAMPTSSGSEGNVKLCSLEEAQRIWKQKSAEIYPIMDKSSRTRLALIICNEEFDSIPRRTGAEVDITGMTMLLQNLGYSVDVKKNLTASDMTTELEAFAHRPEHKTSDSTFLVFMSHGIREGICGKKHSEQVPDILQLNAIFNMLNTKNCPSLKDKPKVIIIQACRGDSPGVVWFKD
T3 sequence (P29466 317-404 limits assumed): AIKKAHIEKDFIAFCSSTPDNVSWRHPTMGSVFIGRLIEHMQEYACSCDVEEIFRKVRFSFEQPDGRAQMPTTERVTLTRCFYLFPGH
Description: as §1

[4] = system: pro-caspase-3 processing induced by cytochrome c; experiment: Cytochrome c-induced processing of pro-caspase-3 in 293 cytosolic extracts; assay type: biochemical, human; settings: immunoblot
Description: Samples were incubated at 30° C. for 30 minutes. Extracts were then separated by SDS-PAGE electrophoresis, transferred to nitrocellulose and incubated with antisera specific for the zymogen and large subunit of caspase-3.
Briefly, cells were washed with ice-cold buffer A (20 mM Hepes [pH 7.5], 10 mM KCl, 1.5 mM MgCl2, 1 mM EDTA, and 1 mM DTT) and suspended in 1 volume of buffer A. Cells were incubated on ice for 20 minutes and then disrupted by passage through a 26 gauge needle 15 times. Cell extracts were clarified by centrifugation at 16,000×g for 30 minutes and the resulting supernatants were stored at −80° C. For initiating caspase activation, either 10 μM horse heart cytochrome c (Sigma, Inc.) together with 1 mM dATP, or 100 nM of purified recombinant caspase-8, was added to extracts (10–15 mg total protein/ml).

[5] = system: 293 cells; experiment: Fas-induced apoptosis in transfected 293 cells; assay type: cell-based, human; settings: co-transfection of Fas and myc-XIAP; 36 hrs
Description: For determination of apoptotic activity in FIG. 2B, 293 cells in 60 mm dishes were transiently transfected with 6 μg of pcDNA-myc-tag control or pcDNA-myc-XIAP plasmids, and either 2 ug of pCMV5 or pCMV5-Fas plasmid DNA. All transfections included 0.5 ug of pEGFP as a marker and were normalized for total DNA content. The percentage of GFP positive cells with apoptotic morphology and nuclear changes consistent with apoptosis were enumerated by DAPI-staining (mean+SD; n=3) at 36 hrs. Alternatively, cell lysates were prepared, and immunoprecipitates were collected using anti-myc monoclonal antibody with protein-G-Sepharose, followed by SDS-PAGE immunoblot assay using anti-caspase-3 antiserum (Krajewska et al., supra 1997) to reveal the XIAP-associated p24 isoform of partially processed caspase-3. Lanes correspond to cells transfected with: (1) control plasmid; (2) myc-XIAP; (3) Fas plus myc-control; and (4) Fas plus myc-XIAP.
Apoptotic assays were performed as follows. 293 cells were transfected as described above, except that 0.5 μg pEGFP plasmid DNA was included.

[6] = biological target: T4, caspase-6 (Homo sapiens, UniProt P55212); experiment: GST pull-down binding to caspase-6; settings: glutathione-Sepharose beads, immunoblot
T4 construct: Purified active caspase concentrations ranged from 0.1 nM to 10 nM; His6; made in house; host or cells: E. coli BL21(DE3)pLysS
T4 sequence (P55212 24-179 limits assumed): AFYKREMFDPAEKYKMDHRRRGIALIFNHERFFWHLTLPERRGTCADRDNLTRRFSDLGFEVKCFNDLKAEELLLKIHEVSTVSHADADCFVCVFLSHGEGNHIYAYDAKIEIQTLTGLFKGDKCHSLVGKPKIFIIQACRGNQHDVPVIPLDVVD
T4 sequence (P55212 194-293 limits assumed): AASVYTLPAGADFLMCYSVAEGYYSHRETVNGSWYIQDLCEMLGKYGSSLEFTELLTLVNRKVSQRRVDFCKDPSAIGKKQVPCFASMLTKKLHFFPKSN

[7] = DEVD-AFC hydrolysis with/without GST-XIAP

XIAP: X chromosome linked inhibitor of apoptosis protein (Genbank U32974), used mostly as recombinant GST fusion or expressed from plasmid
inhibition of processing of DEVD-pNA by caspase-3 ([1]; 10-fold molar excess): greater than 95% | average ratio velocity (vi/vo), caspase-3 [1, 7]: less than 0.2 | Ki ([1]; progress curve analysis, DEVD-AFC 0.1 mM, 0.1 nM caspase, read-out: inhibition constant (Ki) for caspase-3): ~0.7 nM | interference with substrate cleavage by caspase-8 ([2]; 50-fold molar excess): did not interfere | average ratio velocity (vi/vo), caspase-8 [2, 7]: about 1.0 | interference with substrate cleavage by caspase-1 [3]: did not interfere | concentration that effectively abolished cytochrome c-induced processing of pro-caspase-3 [4]: 0.1 to 0.2 µM | Fas-induced apoptosis (in words) [5]: markedly suppressed | binding of caspase-6 (in words) [6]: not caspase-6
